Test results: patent publication US20240131147A1

Target: HIV-1 Clade B Env RHPA on pseudotyped virus (HIV-1)
Assay: competition ELISA on coated RHPA pseudovirus; competitors: sera of MLA092- and MLA025-immunized mice diluted 1:400

Substance: 10E8 broadly neutralizing human anti-HIV-1 Env monoclonal antibody
- concentration that completely inhibited the binding of sera: 2 µg/mL
